In patent publication US10568344B2, “Methods of improving animal performance” (Novozymes A/S, priority 2015, dated 2020):
Read-outs that look alike come from different tables or passages of the source.

What was measured:
[1] = system: Clostridium perfringens DSM756; assay type: cell-based; settings: for Diameter of zone of incomplete inhibition of growth visible after MTT coloring: 100 μg/ml; for Diameter of clearing zone: lysozymes 100 μg/ml, bacitracin 50 μg/ml
[2] = In vivo broiler trial 3, growth performance; parameters: species or system male broiler chickens; Motality: unit not given here
Experimental: The in vivo trial was carried out as described in example 7, except the feed was supplemented with the GH25 lysozyme (SEQ ID NO: 1) at 12.5 or 25 mg per kg feed, the GH24 lysozyme (SEQ ID NO: 4) at 12.5 or 25 mg per kg feed or with Avilamycin at an inclusion level of 10 mg/kg. No additional enzymes (e.g. phytase) were added to the feed. The experimental diets (Starter, Grower and Finisher) were based on soybean meal, wheat and rye (12%) as main ingredients (Table 8). The diets were formulated to contain 225 g crude protein and 12.5 MJ/kg MEN for the starter period, 215 g crude protein and 12.8 MJ/kg MEN for the grower period and 205 g crude protein and 13.0 MJ/kg MEN for the finisher period.

[3] = system: Clostridiales; assay: Microbiota analysis of broiler trial 4 (16S rRNA), Clostridiales; assay type: in vivo, chicken; parameters: key to Observed shift compared to the control group, Significance: Significant change (+++), padj < 0.05; Numerical change (+); settings: 50 ppm
[4] = system: Faecalibacterium; assay: Microbiota analysis of broiler trial 4 (16S rRNA), Faecalibacterium; assay type: in vivo, chicken; parameters: key to Observed shift compared to the control group, Significance: Significant change (+++), padj < 0.05; Numerical change (+); settings: 50 ppm
[5] = In vivo broiler trial 4, FCR and EPEF; parameters: species or system male broiler type chickens (Cobb 500); settings: 50 mg/kg in Grower feed (Days 8-24)
Experimental: Diet composition was designed to meet or exceed the requirements except for metabolisable energy, phosphorus and calcium (tables 15 and 16). […] During the Grower period, the lysozyme (SEQ ID NO: 1) was applied at […] as a liquid formulation (table 14). There were no other enzymes or any coccidiostats supplemented in the diets. The diets were prepared at a […] specialised in experimental diets and the mash feed was offered ad libitum to the birds. At the day of hatching, male day-old broiler type chickens (male byproducts of female parental line of Cobb 500) were obtained from Cobb Germany […] GmbH, […] (Brö[…] birds were randomly assigned in groups of 22 chickens to the experimental pens ( 3 sq·m.) equipped with a bell drinker and a round feeder. After 7 days of equal rearing, number of birds per pen was reduced to 20, selecting against obviously light birds. Recorded body weights (BW) were immediately statistically evaluated. In order to ensure similar average BW between treatments and variation within treatments statistical evaluation of BW-placement of chicks was coordinated in such a way as to minimize within-pen variation and between-treatment differences of average BW. Feed and water were freely available, feed consumption was recorded. Initial bedding consisted of wood shavings. Caked excreta patches around the drinkers were removed several times during the experimental period and more bedding material was added when required. Light and temperature regimes were managed according to the breeder's recommendations. Birds were weighed (groupwise) at placement and at the end of each fattening period. At the final weighing, birds were weighed individually. Feed offered was recorded continuously upon refilling the feeders; the feed remaining in the feeders was recorded at the end of each fattening period. […] Daily BW gain per bird (BW gain) and feed conversion ratio (FCR) were calculated as follows: BWgain: difference between BW per bird at the end and at the beginning of the study divided by the number of days FCR: total feed consumption of a pen divided by total BW gain of that pen (total BW gain=total BW at the end+weight of removals and losses-total BW at the beginning) The European Production Efficacy Factor (EEF) was calculated as follows: EEF=[(liveability,%×BWgain,kg)/(Study duration in days×FCR)]×100. Statistical Analysis Data of performance was analysed using a bi-factorial ANOVA (procedure PROC GLM) with the fixed effects of lysozyme supplementation as well as their interaction. Differences were investigated between the various levels of each main factor (Tukey test), accounting for multiple comparisons where appropriate.

[6] = system: Exiguobacterium undae (DSM14481); assay: Lysozyme activity turbidity assay (optical density drop); assay type: biochemical; settings: pH 5
[7] = Finisher (d 36-42), 12.5 mg/kg feed
[8] = Finisher (d 36-42), 25 mg/kg feed
[9] = Grower (d 22-36), 12.5 mg/kg feed
[10] = Grower (d 22-36), 25 mg/kg feed
[11] = Starter (d 1-22), 12.5 mg/kg feed
[12] = Starter (d 1-22), 25 mg/kg feed
[13] = Whole period (d 1-42), 12.5 mg/kg feed
[14] = Whole period (d 1-42), 25 mg/kg feed

B1: SEQ ID NO: 1: mature amino acid sequence of a wild type GH25 lysozyme from Acremonium alcalophilum with N-terminal SPIRR (protein)
chain: SPIRRRIPGFDISGWQPTTDFARAYANGDRFVYIKATEGTTFKSSAFSRQYTGATQNGFIRGAYHFAQPAASSGAAQARYFASNGGGWSKDGITLPGALDIEYNPNGATCYGLSQSAMVNWIEDFVTTYHGITSRWPVIYTTTDWWTQCTGNSNRFANRCPLWIARYASSVGTLPNGWGFYTFWQYNDKYPQGGDSNWFNGDASRLRALANGD
modifications: Wild type sequence with N-terminal SPIRR
In the case of B1, the Inhibition zone ([1]; 1/10 MHB, pH7, both experiments) is reported as 11-13 mm, the “Diameter of zone of incomplete inhibition of growth visible after MTT coloring” value ([1]; Experiment 1, 1/2 MHB pH 6) is reported as 20 mm and the “Diameter of clearing zone” value ([1]; Experiment 1, 1/2 MHB pH 6) is reported as 6 mm. For the same molecule, the “Diameter of clearing zone” value ([1]; Experiment 1, 1/10 MHB pH 7) was 13 mm, the “Diameter of zone of incomplete inhibition of growth visible after MTT coloring” value ([1]; Experiment 2, 1/2 MHB pH 6) was 19 mm and the “Diameter of clearing zone” value ([1]; Experiment 2, 1/2 MHB pH 6) was 4 mm. For the same molecule, the “Diameter of clearing zone” value ([1]; Experiment 2, 1/10 MHB pH 7) was 11 mm, the “Larger incomplete clearing zone” value ([1]; ½ MHB, pH 6, after coloring with MTT) was 19-20 mm and the Clearing zone diameter ([1]; ½ MHB, pH 6, both experiments) was 4-6 mm. For the same molecule, the “Benefit over the NC diet” value ([2]; 12.5 mg/kg) was “did not show any benefit”, the FCR [2, 7] was 1.953 and the “FCR, Relative to C (%)” value [2, 7] was 99.6%. For the same molecule, the Feed intake [2, 7] was 1544 g/b, the “Feed intake, Relative to C (%)” value [2, 7] was 103.8% and the Weight gain [2, 7] was 794 g/b. For the same molecule, the “Weight gain, Relative to C (%)” value [2, 7] was 104.2%, the FCR [2, 8] was 1.968 and the “FCR, Relative to C (%)” value [2, 8] was 100.4%. For the same molecule, the Feed intake [2, 8] was 1522 g/b, the “Feed intake, Relative to C (%)” value [2, 8] was 102.3% and the Weight gain [2, 8] was 775 g/b. For the same molecule, the “Weight gain, Relative to C (%)” value [2, 8] was 101.8%, the FCR [2, 9] was 1.734 and the “FCR, Relative to C (%)” value [2, 9] was 100.6%. For the same molecule, the Feed intake [2, 9] was 2365 g/b, the “Feed intake, Relative to C (%)” value [2, 9] was 103.5% and the Weight gain [2, 9] was 1365 g/b. The “Weight gain, Relative to C (%)” value [2, 9] was 102.8%, the FCR [2, 10] was 1.692 and the “FCR, Relative to C (%)” value [2, 10] was 98.2%. For the same molecule, the Feed intake [2, 10] was 2308 g/b, the “Feed intake, Relative to C (%)” value [2, 10] was 101.0% and the Weight gain [2, 10] was 1364 g/b. For the same molecule, the “Weight gain, Relative to C (%)” value [2, 10] was 102.7%, the FCR [2, 11] was 1.466 and the “FCR, Relative to C (%)” value [2, 11] was 101.8%. For the same molecule, the Feed intake [2, 11] was 1621 g/b, the “Feed intake, Relative to C (%)” value [2, 11] was 102.7% and the Weight gain [2, 11] was 1106 g/b. The “Weight gain, Relative to C (%)” value [2, 11] was 100.9%, the FCR [2, 12] was 1.413 and the “FCR, Relative to C (%)” value [2, 12] was 98.1%. For the same molecule, the Feed intake [2, 12] was 1596 g/b, the “Feed intake, Relative to C (%)” value [2, 12] was 101.1% and the Weight gain [2, 12] was 1129 g/b. The “Weight gain, Relative to C (%)” value [2, 12] was 103.0%, the EPEF [2, 13] was 398 and the “EPEF, Relative to C (%)” value [2, 13] was 95.2%. For the same molecule, the FCR [2, 13] was 1.695, the “FCR, Relative to C (%)” value [2, 13] was 100.9% and the Feed intake [2, 13] was 5529 g/b. For the same molecule, the “Feed intake, Relative to C (%)” value [2, 13] was 103.3%, the Motality [2, 13] was 13.1 and the Weight gain [2, 13] was 3264 g/b. The “Weight gain, Relative to C (%)” value [2, 13] was 102.5%, the EPEF [2, 14] was 428 and the “EPEF, Relative to C (%)” value [2, 14] was 102.4%. The FCR [2, 14] was 1.660, the “FCR, Relative to C (%)” value [2, 14] was 98.8% and the Feed intake [2, 14] was 5426 g/b. For the same molecule, the “Feed intake, Relative to C (%)” value [2, 14] was 101.4%, the Motality [2, 14] was 8.8 and the Weight gain [2, 14] was 3269 g/b. For the same molecule, the “Weight gain, Relative to C (%)” value [2, 14] was 102.6%, the “EPEF improvement compared to NC diet” value ([2]; whole period, 25 mg/kg) was 1.7% and the “FCR improvement compared to NC diet” value ([2]; whole period, 25 mg/kg) was 1.4%. The “Observed shift compared to the control group, Significance” value (“Observed shift … Significance” for short) ([3]; Order level (Clostridiales)) was “+”, the “Clostridiales Change vs control” value ([3]; order level) was 5.3792 and the “Clostridiales Ratio vs control” value ([3]; order level) was 1.1671. The “Clostridiales abundance, Lysozyme treatment” value ([3]; order level, ceca content) was 37.5638, the “Observed shift … Significance” value ([4]; Genus level (Faecalibacterium)) was “+” and the “Observed shift … Significance” value ([4]; OTU level (Faecalibacterium species)) was “+++ (Significant change (+++), padj < 0.05)”. For the same molecule, the “OTU #27 (Faecalibacterium) Change vs control” value ([4]; OTU level) was 3.45, the “OTU #27 (Faecalibacterium) Ratio vs control” value ([4]; OTU level) was 16.53 and the “OTU #27 (Faecalibacterium) abundance, Lysozyme treatment” value ([4]; OTU level, ceca content) was 3.67. For the same molecule, the “Faecalibacterium Change vs control” value ([4]; genus level) was 5.65, the “Faecalibacterium Ratio vs control” value ([4]; genus level) was 4.04 and the “Faecalibacterium abundance, Lysozyme treatment” value ([4]; genus level, ceca content) was 7.50. It also gave an EPEF [5] of 327, an FCR [5] of 1.56 and an EPEF % improvement ([5]; vs no lysozyme) of 3.8%. For the same molecule, the EPEF change ([5]; vs no lysozyme) was 12, the FCR % improvement ([5]; vs no lysozyme) was 1.9% and the FCR change ([5]; vs no lysozyme) was 0.03. The “Lysozyme activity as measured by Optical Density Drop” value [6] was “+ (pH 5)”.
